Test results taken from patent publication US20210388087A1 (Chugai, published 2021).

Each binder was assayed against T1, Human CD137 ECD (human) (assay: Biacore SPR, vs parent H183/L072).
T1 construct: entry includes C-terminal His-tag and biotin acceptor peptide; also called human CD137 extracellular domain; 4-1BB
T1 sequence (chain, as listed by the source limits assumed): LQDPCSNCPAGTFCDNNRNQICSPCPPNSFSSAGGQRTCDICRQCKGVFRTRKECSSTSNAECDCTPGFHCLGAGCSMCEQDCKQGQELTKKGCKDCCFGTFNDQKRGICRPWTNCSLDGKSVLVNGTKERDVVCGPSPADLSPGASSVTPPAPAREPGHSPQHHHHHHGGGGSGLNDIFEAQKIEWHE

Row | fold change of affinity [fold] | Binder
1 | 0 | H183/L072 VL Q90E (antibody, name in Kabat numbering, V domains shown, Dual-Ig) VH: QVQLVESGGGLVQPGRSLRLSCAASGFTFSNAWMHWVRQAPGKGLEWVAQIKDKGNAYAAYYAPSVKGRFTISRDDSKNSIYLQMNSLKTEDTAVYYCHYVHYASASTVLPAFGVDAWGQGTTVTVSS VL: DIVMTQSPLSLPVTPGEPASISCQASQELVHMNRNTYLHWYQQKPGQAPRLLIYKVSNRFPGVPDRFSGSGSGTDFTLKISRVEAEDVGVYYCAEGTSVPFTFGQGTKLEIK
2 | 0 | H183/L072 VL Q90A (antibody, name in Kabat numbering, V domains shown, Dual-Ig) VH: QVQLVESGGGLVQPGRSLRLSCAASGFTFSNAWMHWVRQAPGKGLEWVAQIKDKGNAYAAYYAPSVKGRFTISRDDSKNSIYLQMNSLKTEDTAVYYCHYVHYASASTVLPAFGVDAWGQGTTVTVSS VL: DIVMTQSPLSLPVTPGEPASISCQASQELVHMNRNTYLHWYQQKPGQAPRLLIYKVSNRFPGVPDRFSGSGSGTDFTLKISRVEAEDVGVYYCAAGTSVPFTFGQGTKLEIK
3 | 0 | H183/L072 VL Q90D (antibody, name in Kabat numbering, V domains shown, Dual-Ig) VH: QVQLVESGGGLVQPGRSLRLSCAASGFTFSNAWMHWVRQAPGKGLEWVAQIKDKGNAYAAYYAPSVKGRFTISRDDSKNSIYLQMNSLKTEDTAVYYCHYVHYASASTVLPAFGVDAWGQGTTVTVSS VL: DIVMTQSPLSLPVTPGEPASISCQASQELVHMNRNTYLHWYQQKPGQAPRLLIYKVSNRFPGVPDRFSGSGSGTDFTLKISRVEAEDVGVYYCADGTSVPFTFGQGTKLEIK
4 | 0.8 | H183/L072 VL Q27S (antibody, name in Kabat numbering, V domains shown, Dual-Ig) VH: QVQLVESGGGLVQPGRSLRLSCAASGFTFSNAWMHWVRQAPGKGLEWVAQIKDKGNAYAAYYAPSVKGRFTISRDDSKNSIYLQMNSLKTEDTAVYYCHYVHYASASTVLPAFGVDAWGQGTTVTVSS VL: DIVMTQSPLSLPVTPGEPASISCQASSELVHMNRNTYLHWYQQKPGQAPRLLIYKVSNRFPGVPDRFSGSGSGTDFTLKISRVEAEDVGVYYCAQGTSVPFTFGQGTKLEIK
5 | 0.5 | H183/L072 VL Q27W (antibody, name in Kabat numbering, V domains shown, Dual-Ig) VH: QVQLVESGGGLVQPGRSLRLSCAASGFTFSNAWMHWVRQAPGKGLEWVAQIKDKGNAYAAYYAPSVKGRFTISRDDSKNSIYLQMNSLKTEDTAVYYCHYVHYASASTVLPAFGVDAWGQGTTVTVSS VL: DIVMTQSPLSLPVTPGEPASISCQASWELVHMNRNTYLHWYQQKPGQAPRLLIYKVSNRFPGVPDRFSGSGSGTDFTLKISRVEAEDVGVYYCAQGTSVPFTFGQGTKLEIK
6 | 0.7 | H183/L072 VL Q27Y (antibody, name in Kabat numbering, V domains shown, Dual-Ig) VH: QVQLVESGGGLVQPGRSLRLSCAASGFTFSNAWMHWVRQAPGKGLEWVAQIKDKGNAYAAYYAPSVKGRFTISRDDSKNSIYLQMNSLKTEDTAVYYCHYVHYASASTVLPAFGVDAWGQGTTVTVSS VL: DIVMTQSPLSLPVTPGEPASISCQASYELVHMNRNTYLHWYQQKPGQAPRLLIYKVSNRFPGVPDRFSGSGSGTDFTLKISRVEAEDVGVYYCAQGTSVPFTFGQGTKLEIK
7 | 0.9 | H183/L072 VL Q27R (antibody, name in Kabat numbering, V domains shown, Dual-Ig) VH: QVQLVESGGGLVQPGRSLRLSCAASGFTFSNAWMHWVRQAPGKGLEWVAQIKDKGNAYAAYYAPSVKGRFTISRDDSKNSIYLQMNSLKTEDTAVYYCHYVHYASASTVLPAFGVDAWGQGTTVTVSS VL: DIVMTQSPLSLPVTPGEPASISCQASRELVHMNRNTYLHWYQQKPGQAPRLLIYKVSNRFPGVPDRFSGSGSGTDFTLKISRVEAEDVGVYYCAQGTSVPFTFGQGTKLEIK
8 | 0.9 | H183/L072 VL Q27T (antibody, name in Kabat numbering, V domains shown, Dual-Ig) VH: QVQLVESGGGLVQPGRSLRLSCAASGFTFSNAWMHWVRQAPGKGLEWVAQIKDKGNAYAAYYAPSVKGRFTISRDDSKNSIYLQMNSLKTEDTAVYYCHYVHYASASTVLPAFGVDAWGQGTTVTVSS VL: DIVMTQSPLSLPVTPGEPASISCQASTELVHMNRNTYLHWYQQKPGQAPRLLIYKVSNRFPGVPDRFSGSGSGTDFTLKISRVEAEDVGVYYCAQGTSVPFTFGQGTKLEIK
9 | 0.8 | H183/L072 VL Q27V (antibody, name in Kabat numbering, V domains shown, Dual-Ig) VH: QVQLVESGGGLVQPGRSLRLSCAASGFTFSNAWMHWVRQAPGKGLEWVAQIKDKGNAYAAYYAPSVKGRFTISRDDSKNSIYLQMNSLKTEDTAVYYCHYVHYASASTVLPAFGVDAWGQGTTVTVSS VL: DIVMTQSPLSLPVTPGEPASISCQASVELVHMNRNTYLHWYQQKPGQAPRLLIYKVSNRFPGVPDRFSGSGSGTDFTLKISRVEAEDVGVYYCAQGTSVPFTFGQGTKLEIK

More lines, now with the values behind:

Row | Binder | fold change of affinity [fold]
10 | H183/L072 VL Q27A (antibody, name in Kabat numbering, V domains shown, Dual-Ig) VH: QVQLVESGGGLVQPGRSLRLSCAASGFTFSNAWMHWVRQAPGKGLEWVAQIKDKGNAYAAYYAPSVKGRFTISRDDSKNSIYLQMNSLKTEDTAVYYCHYVHYASASTVLPAFGVDAWGQGTTVTVSS VL: DIVMTQSPLSLPVTPGEPASISCQASAELVHMNRNTYLHWYQQKPGQAPRLLIYKVSNRFPGVPDRFSGSGSGTDFTLKISRVEAEDVGVYYCAQGTSVPFTFGQGTKLEIK | 1
11 | H183/L072 VL Q27P (antibody, name in Kabat numbering, V domains shown, Dual-Ig) VH: QVQLVESGGGLVQPGRSLRLSCAASGFTFSNAWMHWVRQAPGKGLEWVAQIKDKGNAYAAYYAPSVKGRFTISRDDSKNSIYLQMNSLKTEDTAVYYCHYVHYASASTVLPAFGVDAWGQGTTVTVSS VL: DIVMTQSPLSLPVTPGEPASISCQASPELVHMNRNTYLHWYQQKPGQAPRLLIYKVSNRFPGVPDRFSGSGSGTDFTLKISRVEAEDVGVYYCAQGTSVPFTFGQGTKLEIK | 0.1
12 | H183/L072 VL Q27G (antibody, name in Kabat numbering, V domains shown, Dual-Ig) VH: QVQLVESGGGLVQPGRSLRLSCAASGFTFSNAWMHWVRQAPGKGLEWVAQIKDKGNAYAAYYAPSVKGRFTISRDDSKNSIYLQMNSLKTEDTAVYYCHYVHYASASTVLPAFGVDAWGQGTTVTVSS VL: DIVMTQSPLSLPVTPGEPASISCQASGELVHMNRNTYLHWYQQKPGQAPRLLIYKVSNRFPGVPDRFSGSGSGTDFTLKISRVEAEDVGVYYCAQGTSVPFTFGQGTKLEIK | 0.9
13 | H183/L072 VL Q27I (antibody, name in Kabat numbering, V domains shown, Dual-Ig) VH: QVQLVESGGGLVQPGRSLRLSCAASGFTFSNAWMHWVRQAPGKGLEWVAQIKDKGNAYAAYYAPSVKGRFTISRDDSKNSIYLQMNSLKTEDTAVYYCHYVHYASASTVLPAFGVDAWGQGTTVTVSS VL: DIVMTQSPLSLPVTPGEPASISCQASIELVHMNRNTYLHWYQQKPGQAPRLLIYKVSNRFPGVPDRFSGSGSGTDFTLKISRVEAEDVGVYYCAQGTSVPFTFGQGTKLEIK | 0.7
14 | H183/L072 VL Q27D (antibody, name in Kabat numbering, V domains shown, Dual-Ig) VH: QVQLVESGGGLVQPGRSLRLSCAASGFTFSNAWMHWVRQAPGKGLEWVAQIKDKGNAYAAYYAPSVKGRFTISRDDSKNSIYLQMNSLKTEDTAVYYCHYVHYASASTVLPAFGVDAWGQGTTVTVSS VL: DIVMTQSPLSLPVTPGEPASISCQASDELVHMNRNTYLHWYQQKPGQAPRLLIYKVSNRFPGVPDRFSGSGSGTDFTLKISRVEAEDVGVYYCAQGTSVPFTFGQGTKLEIK | 0.9
15 | H183/L072 VL Q27M (antibody, name in Kabat numbering, V domains shown, Dual-Ig) VH: QVQLVESGGGLVQPGRSLRLSCAASGFTFSNAWMHWVRQAPGKGLEWVAQIKDKGNAYAAYYAPSVKGRFTISRDDSKNSIYLQMNSLKTEDTAVYYCHYVHYASASTVLPAFGVDAWGQGTTVTVSS VL: DIVMTQSPLSLPVTPGEPASISCQASMELVHMNRNTYLHWYQQKPGQAPRLLIYKVSNRFPGVPDRFSGSGSGTDFTLKISRVEAEDVGVYYCAQGTSVPFTFGQGTKLEIK | 0.9
16 | H183/L072 VL Q27N (antibody, name in Kabat numbering, V domains shown, Dual-Ig) VH: QVQLVESGGGLVQPGRSLRLSCAASGFTFSNAWMHWVRQAPGKGLEWVAQIKDKGNAYAAYYAPSVKGRFTISRDDSKNSIYLQMNSLKTEDTAVYYCHYVHYASASTVLPAFGVDAWGQGTTVTVSS VL: DIVMTQSPLSLPVTPGEPASISCQASNELVHMNRNTYLHWYQQKPGQAPRLLIYKVSNRFPGVPDRFSGSGSGTDFTLKISRVEAEDVGVYYCAQGTSVPFTFGQGTKLEIK | 0.8
17 | H183/L072 VL Q27L (antibody, name in Kabat numbering, V domains shown, Dual-Ig) VH: QVQLVESGGGLVQPGRSLRLSCAASGFTFSNAWMHWVRQAPGKGLEWVAQIKDKGNAYAAYYAPSVKGRFTISRDDSKNSIYLQMNSLKTEDTAVYYCHYVHYASASTVLPAFGVDAWGQGTTVTVSS VL: DIVMTQSPLSLPVTPGEPASISCQASLELVHMNRNTYLHWYQQKPGQAPRLLIYKVSNRFPGVPDRFSGSGSGTDFTLKISRVEAEDVGVYYCAQGTSVPFTFGQGTKLEIK | 0.8
18 | H183/L072 VL Q27H (antibody, name in Kabat numbering, V domains shown, Dual-Ig) VH: QVQLVESGGGLVQPGRSLRLSCAASGFTFSNAWMHWVRQAPGKGLEWVAQIKDKGNAYAAYYAPSVKGRFTISRDDSKNSIYLQMNSLKTEDTAVYYCHYVHYASASTVLPAFGVDAWGQGTTVTVSS VL: DIVMTQSPLSLPVTPGEPASISCQASHELVHMNRNTYLHWYQQKPGQAPRLLIYKVSNRFPGVPDRFSGSGSGTDFTLKISRVEAEDVGVYYCAQGTSVPFTFGQGTKLEIK | 0.9
19 | H183/L072 VL Q27F (antibody, name in Kabat numbering, V domains shown, Dual-Ig) VH: QVQLVESGGGLVQPGRSLRLSCAASGFTFSNAWMHWVRQAPGKGLEWVAQIKDKGNAYAAYYAPSVKGRFTISRDDSKNSIYLQMNSLKTEDTAVYYCHYVHYASASTVLPAFGVDAWGQGTTVTVSS VL: DIVMTQSPLSLPVTPGEPASISCQASFELVHMNRNTYLHWYQQKPGQAPRLLIYKVSNRFPGVPDRFSGSGSGTDFTLKISRVEAEDVGVYYCAQGTSVPFTFGQGTKLEIK | 0.6
20 | H183/L072 VL Q27K (antibody, name in Kabat numbering, V domains shown, Dual-Ig) VH: QVQLVESGGGLVQPGRSLRLSCAASGFTFSNAWMHWVRQAPGKGLEWVAQIKDKGNAYAAYYAPSVKGRFTISRDDSKNSIYLQMNSLKTEDTAVYYCHYVHYASASTVLPAFGVDAWGQGTTVTVSS VL: DIVMTQSPLSLPVTPGEPASISCQASKELVHMNRNTYLHWYQQKPGQAPRLLIYKVSNRFPGVPDRFSGSGSGTDFTLKISRVEAEDVGVYYCAQGTSVPFTFGQGTKLEIK | 0.9
21 | H183/L072 VL Q27E (antibody, name in Kabat numbering, V domains shown, Dual-Ig) VH: QVQLVESGGGLVQPGRSLRLSCAASGFTFSNAWMHWVRQAPGKGLEWVAQIKDKGNAYAAYYAPSVKGRFTISRDDSKNSIYLQMNSLKTEDTAVYYCHYVHYASASTVLPAFGVDAWGQGTTVTVSS VL: DIVMTQSPLSLPVTPGEPASISCQASEELVHMNRNTYLHWYQQKPGQAPRLLIYKVSNRFPGVPDRFSGSGSGTDFTLKISRVEAEDVGVYYCAQGTSVPFTFGQGTKLEIK | 1
